Assay results: patent US10919943B2, “Mutant proteins enabling agrochemical control of plant gene expression” (The Regents of the University of California, priority 2016, dated 2021)

Experiments:
[1] = test system: HAB1^!-2; test: Yeast two hybrid, mandipropamid-promoted interaction of PYR1 variants with HAB1^!-2; type: cell-based
Description: To engineer orthogonal mandipropamid responsiveness, we introduced the PYR1^! mutation into the PYR1^MANDI receptor to create a septuple mutant called PYR1^!-MANDI (PYR1^Y58H;K59R;V81I;F108A;S122G;F159L;T162D). This mutant interacts with HAB1^! and HAB^!-2 in response to low μM mandipropamid in yeast two-hybrid assays, but is ˜100-fold less sensitive than the PYR1^MANDI/HAB1 interaction, which responds to concentrations in the low nM range (FIG. 3).
To improve sensitivity, we mutagenized ligand contacting and interface residues in PYR1^!-MANDI using NNK primers, pooled the mutant libraries, and used the mutagenized receptors in selection experiments using to identify enhancer mutations. The NNK mutagenesis screen targeted the following residues: P55, H60, F61, I62, K63, V83, S85, G86, L87, P88, A89, S92, E94, I110, H115, R116, L117, Y120, E141, P148, G150, N151, D154, D155, T156, M158, A160, V163, V164, L166, N167, and K170. […] Since M158 and A160 flank the […] mutation present in PYR1^MANDI, we inferred that the closely located orthogonalizing T162D mutation in PYR1^!-MANDI may have reduced mandipropamid sensitivity by altering the local structure of the C-terminal α3-helix, which participates in ligand-induced conformational changes needed for PP2C binding (Nishimura et al., 2009). We therefore simultaneously mutagenized positions M158, F159 and A160 using a primer with degenerate NNK codons at all three positions. F159 was included in this mutagenesis because we have previously observed that multiple substitutions at F159 (A,C,I,L,M,T, or V) are permissive for mandipropamid responsiveness (S. Y. Park et al., n.d.), and sought to test whether residues other than leucine at position 159 might function better in the context of simultaneous changes to both A160 and M158. The mutagenic primer was used in QuickChange mutagenesis reactions using pBD-PYR1^!-MANDI template, and a library of ˜12,000 clones was generated. Plasmid DNA for the library was prepared from pooled E. coli transformants, and subsequently transformed into S. cerevisiae strain MAV99 harboring pACT-HAB1^!-2. ˜20,000 yeast transformants were generated, pooled, and plated onto SD(-Leu,-Trp) agar media supplemented with 0.1% fluorotic acid (to select against mutants that interact in a ligand-independent fashion). The surviving cells were collected and plated onto SD(Leu,-Trp,-Ura) plates supplemented with 50 nM mandipropamid. The colonies displaying the best uracil-independent growth were isolated and retested on different mandipropamid concentrations and then stained in β-galactosidase assays to rank their relative strength.

[2] = test system: HAB1; test: In vitro PP2C assay, ligand-promoted inhibition of GST-HAB1 by receptor; type: biochemical, Arabidopsis; settings: FIG. 9
Description: In the presence of ABA, wild type PYR1 binds to HAB1 and docks into its active site, which inhibits its enzymatic activity by blocking access of substrates. To characterize the orthogonal PYR1^! and HAB1^! interaction biochemically, we produced recombinant forms of each protein in E. coli, along with the wild type form, and tested the wild type and orthogonal mutant for their ability to inhibit HAB1 and HAB1^! activities in vitro. We cloned PYR1^! into pET28 to generate 6×-His tagged receptor and cloned HAB1^! into pGEX-4T-1 to create a GST-fusion protein. The previously constructed (S.-Y. Park et al., 2009) wild type 6×-His-PYR1 and GST-HAB1 constructs were used for producing recombinant wild type proteins. The 6×-His-tagged receptors and GST-tagged PP2Cs were expressed and purified as previously described. Briefly, the proteins were expressed in BL21 [DE3]pLysS E. coli host cells at 18° C. overnight. Fusion proteins were purified from sonicated lysates using Ni-NTA agarose (Qiagen, USA) or Pierce™ Glutathione Agarose (Thermo Scientific) according to the manufacturer's instructions. PP2C assays were conducted in 96-well polystyrene flat-bottom microtitre plates (Greiner). […] The plates were read using a Victor 2 plate reader (PerkinElmer) (355 nm excitation, 460 nm emission) and assays run in triplicate. The PP2C activity values reported are expressed as percent control values, which were calculated by including the carrier solvent (1% DMSO) and the specific receptor assayed, but no ligand. […]
According to our current understanding, in order for ABA signaling to be initiated in vivo, PP2C activity must be inhibited to enable accumulation of active SnRK2 kinases. […] 4-methylumbeliferyl phosphate was added (1 mM final concentration) was added to the reactions after 30 minutes equilibration and plates were read by fluorimetry. The PP2C activity values reported are expressed as percent control values, which was calculated by including the carrier solvent (1% DMSO) and the specific receptor assayed, but no ligand.

B1: PYR1*^-MANDI: PYR1 mutant with 9 mutations, most sensitive to mandipropamid (protein, listed as Arabidopsis thaliana)
chain: MPSELTPEERSELKNSIAEFHTYQLDPGSCSSLHAQRIHAPPELVWSIVRRFDKPQTHRHFIKSCSVEQNFEMRVGCTRDIIVISGLPANTSTERLDILDDERRVTGASIIGGEHRLTNYKGVTTVHRFEKENRIWTVVLESYVVDMPEGNSEDDTRIVVDDVVKLNLQKLATVAEAMARNSGDGSGSQVT
[1]; FIG. 3, FIG. 4
  mandipropamid concentration to which the interaction responds: nM levels
[1]; β-galactosidase assays on different mandipropamid concentrations
  relative mandipropamid sensitivity among selected mutants: most sensitive mutant
[2]; in response to ABA
  inhibition of HAB1 enzymatic activity: does not inhibit
[2]; in response to mandipropamid, 100 nM receptor, 50 nM GST-HAB1
  inhibition of wild type HAB1 enzymatic activity: does not substantially inhibit
